Tested on: mouse iPS cells
Test: Modified KCM method: differentiation of mouse iPS cells on collagen into epithelial progenitor/stem cells (immunostaining, flow cytometry of keratin 14-positive cells)
Format: cell-based
Method: The iPS cells on the SNL feeders were collected by treatment with 0.25% trypsin/EDTA and further pipetted to prepare an iPS cell suspension (single cell suspension). The obtained cell suspension was incubated on a gelatin-coated culture dish for approximately 1 to 2 hours. The supernatant was collected to thereby allow only the feeder cells to adhere to the dish and collect only the iPS cells. The number of the obtained iPS cells was counted. The iPS cells were inoculated at a density of 0.5 to 10×10^3 cells/cm^2 onto a type IV collagen-coated culture dish as described below and cultured at 37° C. for 7 to 28 days in a 5% CO2 atmosphere using a KCM medium shown below. 0.5 nM BMP4, (R&D System) was further added to the KCM medium, and the cells were cultured in the same way as above.
The cells after differentiation induction were examined for the expressions of a basal epithelial cell marker keratin 14, an epithelial progenitor cell/stem cell marker p63, and a corneal epithelial differentiation marker keratin 12 by an immunostaining method. Moreover, keratin 14-positive cells were analyzed by flow cytometry. The immunostaining method and the flow cytometry analysis will be shown in detail below.
After fixation in cold methanol (−30° C./20 min), 5% NST was added to the cells, which were then left at room temperature for 30 minutes for blocking. […]

B1: BMP4: Bone Morphogenetic Protein 4, one of bone morphogenetic factors, belongs to the transforming growth factor-β (TGF-β) superfamily (protein, UniProt P12644 293-408, looked up)
Bone morphogenetic protein 4: SPKHHSQRARKKNKNCRRHSLYVDFSDVGWNDWIVAPPGYQAFYCHGDCPFPLADHLNSTNHAIVQTLVNSVNSSIPKACCVPTELSAISMLYLDEYDKVVLKNYQEMVVEGCGCR
In the case of B1, the “induction efficiency of differentiation (keratin 14-positive cells, flow cytometry)” value (0.5 nM BMP4 added to KCM medium, day 28, 2.9% without BMP4) is reported as 6.0% and the “epithelial induction efficiency (keratin 14-positive and p63-positive cells, immunostaining)” value (BMP4 added to KCM medium, day 28) is reported as “significantly increased epithelial induction efficiency”.
